One substance from patent US9931433B2, “Time-controlled glucose releasing hydrogels and applications thereof” (Centre National de la Recherche Scientifique (CNRS), priority 2014, dated 2018) can be followed below.

This series can be described thus: Stability of the kit components after storage. The series is classed as physicochemical. As to conditions: 14 days storage. The source says: The mechanical properties (storage and loss moduli G′ and G″) are identical at D0, D7 or D21 storage.
The activity of the enzyme AMG was preserved after 14 days storage allowing a long term storage of the kit components.

In the case of glucan 1,4 α-glucosidase [AMG], the “activity of the enzyme after storage” value was “preserved”.
